In paper PMC12187869, “Transport of the uremic toxin symmetric dimethylarginine (SDMA) by renal transport proteins” (Amino Acids, 2025) one finds Km data, which are given here for one protein.

Substrate in this series: CN=C(NC)NCCC[C@H](N)C(=O)O
Description: [3H]SDMA uptake kinetics (Km) and efflux in HEK-OATP4C1 cells. Type of series: cell-based, Homo sapiens.

B1: OATP4C1 (Homo sapiens) (protein)
chain: MKSAKGIENLAFVPSSPDILRRLSASPSQIEVSALSSDPQRENSQPQELQKPQEPQKSPEPSLPSAPPNVSEEKLRSLSLSEFEEGSYGWRNFHPQCLQRCNTPGGFLLHYCLLAVTQGIVVNGLVNISISTVEKRYEMKSSLTGLISSSYDISFCLLSLFVSFFGERGHKPRWLAFAAFMIGLGALVFSLPQFFSGEYKLGSLFEDTCVTTRNSTSCTSSTSSLSNYLYVFILGQLLLGAGGTPLYTLGTAFLDDSVPTHKSSLYIGTGYAMSILGPAIGYVLGGQLLTIYIDVAMGESTDVTEDDPRWLGAWWIGFLLSWIFAWSLIIPFSCFPKHLPGTAEIQAGKTSQAHQSNSNADVKFGKSIKDFPAALKNLMKNAVFMCLVLSTSSEALITTGFATFLPKFIENQFGLTSSFAATLGGAVLIPGAALGQILGGFLVSKFRMTCKNTMKFALFTSGVALTLSFVFMYAKCENEPFAGVSESYNGTGELGNLIAPCNANCNCSRSYYYPVCGDGVQYFSPCFAGCSNPVAHRKPKVYYNCSCIERKTEITSTAETFGFEAKAGKCETHCAKLPIFLCIFFIVIIFTFMAGTPITVSILRCVNHRQRSLALGIQFMVLRLLGTIPGPIIFGFTIDSTCILWDINDCGIKGACWIYDNIKMAHMLVAISVTCKVITMFFNGFAIFLYKPPPSATDVSFHKENAVVTNVLAEQDLNKIVKEG
notes: HEK293 cells stably expressing human OATP4C1
A word on the Km: it is the concentration of substrate that gives half-maximal velocity. For B1, the Km is reported as 70 µM.
